Results taken from article PMC4615246 (Nucleus, 2015).

What was measured:
Experiment in all cases: LacI/LacO array recruitment in cells
LacI-CFP-Nup133 = biological target: T1, LacI-CFP-Nup133 (human, UniProt Q8WUM0 1-1156)
T1 sequence: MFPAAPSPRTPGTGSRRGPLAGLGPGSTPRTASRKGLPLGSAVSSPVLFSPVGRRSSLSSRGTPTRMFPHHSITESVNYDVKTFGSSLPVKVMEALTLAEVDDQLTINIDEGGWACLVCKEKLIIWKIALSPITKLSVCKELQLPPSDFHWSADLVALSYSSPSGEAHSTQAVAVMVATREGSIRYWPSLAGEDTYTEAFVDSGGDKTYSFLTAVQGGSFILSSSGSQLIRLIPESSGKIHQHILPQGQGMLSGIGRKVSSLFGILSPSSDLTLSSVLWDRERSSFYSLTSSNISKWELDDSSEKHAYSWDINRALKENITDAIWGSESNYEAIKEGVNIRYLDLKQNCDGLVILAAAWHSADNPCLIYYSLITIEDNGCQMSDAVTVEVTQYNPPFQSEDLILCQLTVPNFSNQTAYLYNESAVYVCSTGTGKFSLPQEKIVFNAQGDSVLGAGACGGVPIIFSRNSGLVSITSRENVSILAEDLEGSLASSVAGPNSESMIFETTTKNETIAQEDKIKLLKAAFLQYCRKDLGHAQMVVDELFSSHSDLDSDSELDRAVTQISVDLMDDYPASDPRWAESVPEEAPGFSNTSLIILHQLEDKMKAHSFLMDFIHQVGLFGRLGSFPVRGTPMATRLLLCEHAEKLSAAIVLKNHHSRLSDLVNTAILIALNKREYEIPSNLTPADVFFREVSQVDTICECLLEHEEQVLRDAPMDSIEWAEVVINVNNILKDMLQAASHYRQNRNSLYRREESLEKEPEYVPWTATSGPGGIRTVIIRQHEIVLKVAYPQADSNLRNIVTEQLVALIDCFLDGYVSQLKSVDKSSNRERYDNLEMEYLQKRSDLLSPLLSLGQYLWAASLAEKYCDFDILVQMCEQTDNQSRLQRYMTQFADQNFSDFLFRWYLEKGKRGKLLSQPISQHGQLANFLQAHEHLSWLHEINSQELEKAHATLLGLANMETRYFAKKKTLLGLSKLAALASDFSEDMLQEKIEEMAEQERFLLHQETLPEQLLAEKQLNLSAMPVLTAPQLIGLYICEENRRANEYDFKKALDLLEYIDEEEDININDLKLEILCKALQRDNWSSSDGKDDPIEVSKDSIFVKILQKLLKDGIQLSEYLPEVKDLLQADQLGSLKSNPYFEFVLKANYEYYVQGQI

LacI-CFP-Nup153 = biological target: T2, LacI-CFP-Nup153 (human, UniProt P49790 1-1475)
T2 sequence: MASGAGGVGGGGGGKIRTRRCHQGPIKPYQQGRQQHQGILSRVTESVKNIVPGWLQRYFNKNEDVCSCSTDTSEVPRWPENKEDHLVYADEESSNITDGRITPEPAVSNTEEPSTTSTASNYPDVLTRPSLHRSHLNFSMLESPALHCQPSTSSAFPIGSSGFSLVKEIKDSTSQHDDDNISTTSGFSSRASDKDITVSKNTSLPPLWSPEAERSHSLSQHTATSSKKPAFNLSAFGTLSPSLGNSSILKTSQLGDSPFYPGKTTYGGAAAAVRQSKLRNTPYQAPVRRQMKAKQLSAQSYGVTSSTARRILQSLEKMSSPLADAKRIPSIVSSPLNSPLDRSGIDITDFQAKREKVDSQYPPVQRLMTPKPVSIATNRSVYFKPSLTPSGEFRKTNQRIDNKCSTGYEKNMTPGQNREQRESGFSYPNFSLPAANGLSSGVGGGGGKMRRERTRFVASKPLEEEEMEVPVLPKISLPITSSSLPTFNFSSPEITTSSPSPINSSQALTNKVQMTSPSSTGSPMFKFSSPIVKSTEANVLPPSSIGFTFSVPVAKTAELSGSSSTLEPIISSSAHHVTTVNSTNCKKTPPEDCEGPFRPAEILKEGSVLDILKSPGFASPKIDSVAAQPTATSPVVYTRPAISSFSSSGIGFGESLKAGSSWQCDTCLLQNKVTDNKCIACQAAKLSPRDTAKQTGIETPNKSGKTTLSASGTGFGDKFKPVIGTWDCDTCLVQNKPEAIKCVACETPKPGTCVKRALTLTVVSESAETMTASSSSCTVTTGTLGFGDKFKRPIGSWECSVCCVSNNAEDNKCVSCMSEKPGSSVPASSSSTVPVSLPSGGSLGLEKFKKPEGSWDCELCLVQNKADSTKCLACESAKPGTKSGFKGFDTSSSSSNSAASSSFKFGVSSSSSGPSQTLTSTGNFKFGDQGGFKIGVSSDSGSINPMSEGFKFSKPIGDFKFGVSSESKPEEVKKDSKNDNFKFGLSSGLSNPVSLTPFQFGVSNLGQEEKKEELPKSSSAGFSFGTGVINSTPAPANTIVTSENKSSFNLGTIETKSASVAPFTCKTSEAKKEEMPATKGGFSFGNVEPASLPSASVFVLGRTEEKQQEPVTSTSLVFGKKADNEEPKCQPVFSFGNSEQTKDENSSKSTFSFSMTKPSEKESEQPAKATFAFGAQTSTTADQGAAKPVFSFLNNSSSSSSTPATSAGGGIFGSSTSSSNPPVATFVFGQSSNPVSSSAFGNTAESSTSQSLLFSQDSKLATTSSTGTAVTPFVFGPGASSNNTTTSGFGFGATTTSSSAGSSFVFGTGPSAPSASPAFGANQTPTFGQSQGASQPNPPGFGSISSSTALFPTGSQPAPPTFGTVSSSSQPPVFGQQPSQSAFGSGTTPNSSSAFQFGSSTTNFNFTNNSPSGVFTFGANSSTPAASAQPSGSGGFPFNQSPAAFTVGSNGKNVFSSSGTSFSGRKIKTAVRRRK

LacI-CFP-Nup50 = biological target: T3, LacI-CFP-Nup50 (human, UniProt Q9UKX7 1-468)
T3 sequence: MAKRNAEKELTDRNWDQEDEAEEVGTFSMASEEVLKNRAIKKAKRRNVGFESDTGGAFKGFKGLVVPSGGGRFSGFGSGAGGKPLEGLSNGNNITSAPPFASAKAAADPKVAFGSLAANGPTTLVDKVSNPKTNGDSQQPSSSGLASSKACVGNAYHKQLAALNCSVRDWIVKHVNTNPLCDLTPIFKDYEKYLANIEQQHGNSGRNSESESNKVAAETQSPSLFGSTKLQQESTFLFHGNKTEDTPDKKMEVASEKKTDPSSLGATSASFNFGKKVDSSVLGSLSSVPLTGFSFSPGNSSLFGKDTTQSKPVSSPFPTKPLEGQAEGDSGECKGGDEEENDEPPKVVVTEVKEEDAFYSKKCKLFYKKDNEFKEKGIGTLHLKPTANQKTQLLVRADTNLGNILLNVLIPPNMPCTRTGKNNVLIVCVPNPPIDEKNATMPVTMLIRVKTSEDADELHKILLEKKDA

LacI-CFP-Nup214 = LacI-CFP-Nup214 (human, UniProt P35658 1-2090)
LacI-CFP-Nup214, sequence (P35658 whole entry): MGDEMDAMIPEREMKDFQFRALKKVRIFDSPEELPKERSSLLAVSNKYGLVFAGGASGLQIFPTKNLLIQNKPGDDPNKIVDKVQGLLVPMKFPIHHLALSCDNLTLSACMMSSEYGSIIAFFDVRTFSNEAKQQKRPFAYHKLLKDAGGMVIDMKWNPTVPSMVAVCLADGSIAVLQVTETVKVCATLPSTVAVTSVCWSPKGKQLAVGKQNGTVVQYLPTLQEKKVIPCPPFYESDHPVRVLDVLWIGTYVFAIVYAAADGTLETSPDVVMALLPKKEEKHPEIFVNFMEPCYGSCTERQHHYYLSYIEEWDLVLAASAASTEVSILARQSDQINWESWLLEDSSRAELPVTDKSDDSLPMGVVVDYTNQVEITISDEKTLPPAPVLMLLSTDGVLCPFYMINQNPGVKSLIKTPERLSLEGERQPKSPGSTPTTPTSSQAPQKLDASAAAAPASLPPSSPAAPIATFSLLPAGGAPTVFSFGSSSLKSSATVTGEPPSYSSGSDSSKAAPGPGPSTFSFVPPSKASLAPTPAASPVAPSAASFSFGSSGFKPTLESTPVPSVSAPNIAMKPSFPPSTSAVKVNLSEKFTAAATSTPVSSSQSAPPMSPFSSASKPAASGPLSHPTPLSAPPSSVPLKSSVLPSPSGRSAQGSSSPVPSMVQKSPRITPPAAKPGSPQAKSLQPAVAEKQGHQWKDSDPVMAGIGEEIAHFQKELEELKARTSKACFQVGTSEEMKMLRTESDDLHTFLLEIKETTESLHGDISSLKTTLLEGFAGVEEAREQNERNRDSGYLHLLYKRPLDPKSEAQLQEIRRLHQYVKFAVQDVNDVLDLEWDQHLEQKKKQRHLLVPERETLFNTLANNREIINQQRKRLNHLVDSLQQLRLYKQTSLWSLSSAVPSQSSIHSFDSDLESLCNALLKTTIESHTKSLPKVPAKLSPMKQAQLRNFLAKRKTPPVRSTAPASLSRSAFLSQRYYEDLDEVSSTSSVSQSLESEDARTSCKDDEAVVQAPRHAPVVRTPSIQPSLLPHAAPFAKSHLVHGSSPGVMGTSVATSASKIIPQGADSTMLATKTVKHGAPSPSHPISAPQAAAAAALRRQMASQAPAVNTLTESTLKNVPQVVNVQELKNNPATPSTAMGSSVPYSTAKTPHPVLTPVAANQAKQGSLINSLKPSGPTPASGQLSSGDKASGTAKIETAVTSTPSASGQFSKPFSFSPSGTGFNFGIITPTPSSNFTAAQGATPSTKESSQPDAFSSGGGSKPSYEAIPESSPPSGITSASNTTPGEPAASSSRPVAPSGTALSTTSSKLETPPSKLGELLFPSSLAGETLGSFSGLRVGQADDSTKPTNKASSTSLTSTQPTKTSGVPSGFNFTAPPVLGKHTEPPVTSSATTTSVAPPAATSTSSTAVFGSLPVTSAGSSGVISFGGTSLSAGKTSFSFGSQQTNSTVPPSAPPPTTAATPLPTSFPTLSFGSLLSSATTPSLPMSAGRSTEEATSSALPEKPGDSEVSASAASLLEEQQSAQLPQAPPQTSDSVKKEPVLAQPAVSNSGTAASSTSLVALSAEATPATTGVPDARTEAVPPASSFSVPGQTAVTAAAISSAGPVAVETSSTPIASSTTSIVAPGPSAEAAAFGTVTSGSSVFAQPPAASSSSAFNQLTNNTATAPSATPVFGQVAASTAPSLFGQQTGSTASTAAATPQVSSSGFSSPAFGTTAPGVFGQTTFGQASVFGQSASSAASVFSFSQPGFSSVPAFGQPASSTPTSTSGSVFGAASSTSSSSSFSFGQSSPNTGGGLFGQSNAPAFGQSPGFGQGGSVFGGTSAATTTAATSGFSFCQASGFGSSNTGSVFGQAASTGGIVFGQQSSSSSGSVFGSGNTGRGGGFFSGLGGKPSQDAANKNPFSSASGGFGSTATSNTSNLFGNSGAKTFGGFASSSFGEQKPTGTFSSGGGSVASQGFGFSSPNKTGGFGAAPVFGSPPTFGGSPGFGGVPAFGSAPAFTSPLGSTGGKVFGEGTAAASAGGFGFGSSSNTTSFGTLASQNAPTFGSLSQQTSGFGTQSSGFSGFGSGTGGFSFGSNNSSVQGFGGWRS

B1: Nup98 (endogenous) (natural protein)
chain: MFNKSFGTPFGGGTGGFGTTSTFGQNTGFGTTSGGAFGTSAFGSSNNTGGLFGNSQTKPGGLFGTSSFSQPATSTSTGFGFGTSTGTANTLFGTASTGTSLFSSQNNAFAQNKPTGFGNFGTSTSSGGLFGTTNTTSNPFGSTSGSLFGPSSFTAAPTGTTIKFNPPTGTDTMVKAGVSTNISTKHQCITAMKEYESKSLEELRLEDYQANRKGPQNQVGAGTTTGLFGSSPATSSATGLFSSSTTNSGFAYGQNKTAFGTSTTGFGTNPGGLFGQQNQQTTSLFSKPFGQATTTQNTGFSFGNTSTIGQPSTNTMGLFGVTQASQPGGLFGTATNTSTGTAFGTGTGLFGQTNTGFGAVGSTLFGNNKLTTFGSSTTSAPSFGTTSGGLFGNKPTLTLGTNTNTSNFGFGTNTSGNSIFGSKPAPGTLGTGLGAGFGTALGAGQASLFGNNQPKIGGPLGTGAFGAPGFNTTTATLGFGAPQAPVALTDPNASAAQQAVLQQHINSLTYSPFGDSPLFRNPMSDPKKKEERLKPTNPAAQKALTTPTHYKLTPRPATRVRPKALQTTGTAKSHLFDGLDDDEPSLANGAFMPKKSIKKLVLKNLNNSNLFSPVNRDSENLASPSEYPENGERFSFLSKPVDENHQQDGDEDSLVSHFYTNPIAKPIPQTPESAGNKHSNSNSVDDTIVALNMRAALRNGLEGSSEETSFHDESLQDDREEIENNSYHMHPAGIILTKVGYYTIPSMDDLAKITNEKGECIVSDFTIGRKGYGSIYFEGDVNLTNLNLDDIVHIRRKEVVVYLDDNQKPPVGEGLNRKAEVTLDGVWPTDKTSRCLIKSPDRLADINYEGRLEAVSRKQGAQFKEYRPETGSWVFKVSHF
Q: B1 was tested. Which “percent of transfected cells showing colocalization” value (from here on “percent”) (LacI-CFP-Nup133) did it give?
A: The value was 70%.

Q: What about the “percent” value (LacI-CFP-Nup153) of the same binder?
A: Its value is 11%.

Q: And the “percent” value (LacI-CFP-Nup50)?
A: The value was 11%.

Q: And the “percent” value (LacI-CFP-Nup214)?
A: Its value is 90%.
